Data from patent publication US20240174741A1 (IMMUNOME, published 2024).

Assays:
IL-33 = biological target: T1, IL-33 (human, UniProt O95760 1-270, limits assumed); experiment: CDI HuProt native protein microarray
T1 sequence (looked up): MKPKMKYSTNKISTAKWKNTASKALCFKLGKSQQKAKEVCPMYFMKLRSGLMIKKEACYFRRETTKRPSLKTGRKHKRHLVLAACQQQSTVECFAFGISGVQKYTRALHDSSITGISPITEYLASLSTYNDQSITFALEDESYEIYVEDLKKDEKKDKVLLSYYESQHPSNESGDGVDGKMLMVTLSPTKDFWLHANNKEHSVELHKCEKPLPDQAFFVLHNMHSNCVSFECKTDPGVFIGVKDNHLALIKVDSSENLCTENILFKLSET
Method: (§1) To confirm specificity to IL-38, several lead candidate antibodies (CD1-M3, CD1-M8, NZB-M8) were analyzed in a High-Spec Cross-reactivity Assay using native HuProt arrays (CDI Laboratories). […] of antibody was incubated overnight in a cold room, washed, and probed with anti-human secondary antibodies. Fluorescence intensity (F635) as an indicator of binding was measured for each spot. CDI software quantified the specificity of the antibody to each spot based on a Z-score. Z-score is defined as [F635−(Average F635 on array)]/(Standard deviation of F635 on array). S-score is defined as the difference between the Z-score of a given protein and the Z-score of the next highest protein.

IL-36b = biological target: T2, IL-36b (human, UniProt Q9NZH7 1-164, limits assumed); experiment: CDI HuProt native protein microarray
T2 sequence (looked up): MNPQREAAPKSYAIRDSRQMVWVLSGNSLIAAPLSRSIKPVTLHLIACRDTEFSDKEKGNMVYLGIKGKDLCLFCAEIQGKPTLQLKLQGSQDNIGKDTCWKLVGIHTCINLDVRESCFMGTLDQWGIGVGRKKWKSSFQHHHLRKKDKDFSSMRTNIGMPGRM
Method: as §1

IL-1Ra = IL-1Ra (human, UniProt P18510 26-177, limits assumed); experiment: CDI HuProt native protein microarray
Sequence of IL-1Ra (P18510 26-177 limits assumed): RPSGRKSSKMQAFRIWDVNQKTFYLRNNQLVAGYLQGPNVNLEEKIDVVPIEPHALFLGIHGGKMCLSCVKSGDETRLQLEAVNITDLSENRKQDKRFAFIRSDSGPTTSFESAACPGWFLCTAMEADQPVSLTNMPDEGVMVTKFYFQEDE
Method: as §1

IL-1α = biological target: T3, IL-1α (human, UniProt P01583 1-271, limits assumed); experiment: CDI HuProt native protein microarray
T3 sequence (looked up): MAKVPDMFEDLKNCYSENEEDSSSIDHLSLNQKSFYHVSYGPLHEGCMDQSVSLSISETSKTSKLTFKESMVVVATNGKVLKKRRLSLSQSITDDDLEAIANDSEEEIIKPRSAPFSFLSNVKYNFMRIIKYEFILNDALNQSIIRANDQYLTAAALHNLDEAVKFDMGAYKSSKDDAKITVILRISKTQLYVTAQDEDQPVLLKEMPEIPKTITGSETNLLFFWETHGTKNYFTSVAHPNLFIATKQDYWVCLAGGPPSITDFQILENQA
Method: as §1

IL-37 = biological target: T4, IL-37 (human, UniProt Q9NZH6 1-218, limits assumed); experiment: CDI HuProt native protein microarray
T4 sequence (looked up): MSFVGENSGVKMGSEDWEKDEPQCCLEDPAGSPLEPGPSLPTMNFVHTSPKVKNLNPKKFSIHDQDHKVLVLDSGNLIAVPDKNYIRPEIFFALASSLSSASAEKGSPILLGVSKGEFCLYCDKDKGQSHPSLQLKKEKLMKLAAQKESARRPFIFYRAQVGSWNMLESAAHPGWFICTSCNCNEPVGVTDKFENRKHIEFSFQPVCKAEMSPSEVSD
Method: as §1

IL-18 = biological target: T5, IL-18 (human, UniProt Q14116 1-193, limits assumed); experiment: CDI HuProt native protein microarray
T5 sequence (looked up): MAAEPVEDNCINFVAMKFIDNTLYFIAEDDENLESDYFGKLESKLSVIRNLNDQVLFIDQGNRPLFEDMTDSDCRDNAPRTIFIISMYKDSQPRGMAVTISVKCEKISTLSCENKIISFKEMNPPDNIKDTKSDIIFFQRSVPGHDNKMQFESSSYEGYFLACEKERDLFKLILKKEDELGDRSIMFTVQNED
Method: as §1

IL-36g = biological target: T6, IL-36g (human, UniProt Q9NZH8 1-169, limits assumed); experiment: CDI HuProt native protein microarray
T6 sequence (looked up): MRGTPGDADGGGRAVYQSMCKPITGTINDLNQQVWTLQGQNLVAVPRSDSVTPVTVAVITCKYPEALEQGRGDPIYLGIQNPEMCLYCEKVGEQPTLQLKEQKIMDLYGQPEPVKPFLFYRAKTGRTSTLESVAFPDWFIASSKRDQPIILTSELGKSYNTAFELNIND
Method: as §1

Hnrnph1 = biological target: T7, Hnrnph1; experiment: CDI HuProt native protein microarray (High-Spec cross-reactivity assay)
T7 construct: The lower-case gene symbol may mean a mouse clone
T7 sequence (P31943 1-449, species assumed, looked up): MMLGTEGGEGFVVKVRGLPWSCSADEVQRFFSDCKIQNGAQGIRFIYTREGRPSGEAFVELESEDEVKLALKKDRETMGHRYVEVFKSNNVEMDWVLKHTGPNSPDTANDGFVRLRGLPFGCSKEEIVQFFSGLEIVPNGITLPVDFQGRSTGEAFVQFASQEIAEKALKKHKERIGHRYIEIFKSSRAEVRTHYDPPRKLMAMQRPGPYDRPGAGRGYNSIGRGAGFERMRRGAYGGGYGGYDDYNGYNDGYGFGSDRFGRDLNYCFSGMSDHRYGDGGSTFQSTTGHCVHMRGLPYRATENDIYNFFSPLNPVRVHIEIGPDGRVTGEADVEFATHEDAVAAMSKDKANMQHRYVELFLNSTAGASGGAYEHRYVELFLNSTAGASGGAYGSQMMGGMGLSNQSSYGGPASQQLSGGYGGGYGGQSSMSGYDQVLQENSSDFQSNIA
Method: as §1

[1] = biological target: T8, human interleukin-38 (IL-38) (human, UniProt Q8WWZ1 1-152); experiment: BLI (Octet QKe), antibody on anti-mouse Fc biosensors, soluble IL-38, 1:1 model
T8 construct: The Adipogen protein is called full length; also called IL1F10/IL38; IL1F10
T8 sequence (looked up): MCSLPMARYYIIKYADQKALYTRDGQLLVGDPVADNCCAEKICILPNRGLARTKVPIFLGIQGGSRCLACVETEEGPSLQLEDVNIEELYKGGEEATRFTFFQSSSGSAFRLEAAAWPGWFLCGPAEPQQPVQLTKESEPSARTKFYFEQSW
Method: Antibody was loaded to AMC probes, blocked in the kinetics buffer for 1 min (baseline) and dipped into an appropriate IL-38 solution. IL-38 association to antibodies of interest was measured for 180 seconds at 28° C. Biosensors were subsequently dipped into kinetics buffer-containing wells and the protein dissociation was measured for 600 s. KD, Kon and Kdis values were identified using the 1:1 built-in model of the ForteBio's Data Analysis 9 software.

B1: CD1-M3 (antibody, V domains shown)
VH: EVQLQQSGPELVKPGASVKIPCKASGYTFTDYNMDWVKQSHGKSLEWIGDINPNNGGTIYNQKFKGKATLTVDKSSSTAYMELRSLTSEDTAVYYCSRPYYGYFAYWGQGTLVTVSA
VL: DVVMTQSPLSLPVSLGDQASISCRSSQSLVHSHENTFLHWYLQKPGQSPKLLIYRVSNRFSGVPDRFSGSGSGTDFTLKISRVEAEDLGVYFCSQSTHVPLTFGAGTKLELK
notes: Mouse monoclonal from a hybridoma of a CD-1 mouse immunized with full length recombinant IL-38
binding result (IL-33): no binding | binding result (IL-36b): no binding | binding result (IL-1Ra): no binding | binding result (IL-1α): no binding | binding result (IL-37): no binding | binding result (IL-18): no binding | binding result (IL-36g): no binding | F635 (Hnrnph1): 4130 | S-Score (Hnrnph1): 5 | Z-score (Hnrnph1): 10.6 | Kd [1]: 0.721 nM
